Reference: the DeepSol protein solubility set

test: soluble on expression in E. coli; label from the status in PepcDB or PDB records

Row | Sequence | soluble on expression in E. coli
1 | MDRVIAAQVYLRICELGSLSAAARALGMSRPMVSRYLEQMESWAGARLIHRSTRRLTLTPAGEKVLLKTRGLTRIADEIAGERQRADPSGTLRVACAHFTAMQLISPLLPDFLARYPLLRLELDINNHPVSLIGERIDVAIRITDNPEAGAIARRLGVCRSLLCAAPGWMRQHGPLTTPDDLQRHNCLLYSHFASQHWQFSDAQGREASVAVNGNLSAGISSLLLEAAVAGCGIAMLPELEARGAIASGTLEVVLPEWTPKALSVYGIYLSRDYQPDGLPLFLDALQRRLGEETGHG | not soluble
2 | KDWEKVVYGFATLYICSFVLDQVVNSARQSVQFFIISNKYEEIGRHINEYPHRGVTIINATGFYTGREVKMMFVLAKKRESTIIFRLIKDIDPNAFVSQSAVIGVYGEGFDHIKVK | not soluble
3 | NFDTNMFKLENYVKEKYSLESLEIIPNEFDDTPTILSERISQVAAGVLRNLIDDNMKIGFSWGKSLSNLVDLIHSKSVRNVHFYPLAGGPSHIHAKYHVNTLIYEMSRKFHGECTFMNATIVQENKLLADGILQSRYFENLKNSWKDLDIAVVGIGDFSNKGKHQWLDMLTEDDFKELTKVKTVGEICCRFFDSKGKEVYENLQERTIAISLEDLKNIPQSLAVAYGDTKVSSILSVLRANLVNHLITDKNTILKVLEEDGDL | soluble
4 | MPRHFHVALLILVLCGAERARGALRVQLQDYDKNSWRSVLRRVAPEWVLEEFADVKVLSAAENGFQLPKSGLAQIEINKSGRKTVTANTPTDALNAINTYLRTECLSQVSWSNSSFSSGCRKRTSDFINFESKQIRYFGNMCTFSYSFAWWEWPQWERFIDWIALNGFNTVLMPLGQEIIWRDIFMGLGVQRDELDSYFTSQAYLAWHRMGNLKAYGGGLSDAQMLNDHNLAKRIIDRLLELGITPILPTFAGFVPDHLETLFPASKFNRLPRWNNFTSETSCMLSVSPFDPLFQKIGSTFLRHQKKMFGGDVTNMYSADPFNEILPSESAKFDAKFVKQTAQAIMNSCKKVDKNCVWVLQSWSFTYDQWPAWAIKSFLSAIPVGNLLILDLYAEVVPAWQMTSSFQGHHFVWCLLHNFGGSRELRGNLQKIDKGYQLALMKAGSNLVGAGLSMEAIDQNYVVYQFMIDRMWSPEPLPLNNWLKAYSESRYSADFKVAQKFWTLLAGTFYNQPEKWGTPRFSVFLYHRPGFGRKIEYWFPVEETFSRFRELLPALVHVLGEHPLFREDLNDVMREMTQFEMGNEAALSMSEAFLMEDKQQVGASCEMLMEMFQKLESYSNRDVRQWIENAKSIAPTSEERQVFPVTAGDILTVWGPTGQNLDYAHREWAGLMSGYYGRRWQYFCDWILEHDDFNHTEFSISVFRDVERPFSISNI | not soluble
5 | MRPEHLSLQLLAWIYLINGNPIVQKGGLEVLDITDSNDLSVRQRFEEVIRLDCASQRRKALKRKTDGDARIYIPTCSPKNSLLYDKVQCYDVSIYCWCVDELSGEPKLGSSTTRGKPKCEETPTTTVAPKRVRRNNRCKEKKRTRFLRRLVSTLKSEMIMSGINATKVSRDSAIRWKFNQLNINHNNVLERSEWKPFKSVLLEWKNVRQCSRNLFKTCDLNKDRKLTFDEWRKCIVQEINRVPAKRPDQLNPFLYILRSE | soluble
6 | MTTQIELGDITVDVVLKDIKNIHLSVYPPNGRVKISAPLRMDIDTIRVFAISRLGWIKQQRKKFQEQERETPREYLDLESHYVWGKRYLLKVIEVNEAPSVELKHSKMILRVRPGTDDKKRQSIIDAWYREQLKKAIPPLIARWEPLLGVKVERFFVQRMRTKWGSCNHKARNIRLNTELAKKPEECLEYTIVHEMAHILEPTHNSHFITLMDQFMPKWQFCRDRLNQLPVRHEDWIYLEHHHHHH | soluble
7 | VSELSVATGAVSTASSSIPMPAGVNPADLAAELAAVVTESVDEDYLLYECDGQWVLAAGVQAMVELDSDELRVIRDGVTRRQQWSGRPGAALGEAVDRLLLETDQAFGWVAFEFGVHRYGLQQRLAPHTPLARVFSPRTRIMVSEKEIRLFDAGIRHREAIDRLLATGVREVPQSRSVDVSDDPSGFRRRVAVAVDEIAAGRYHKVILSRCVEVPFAIDFPLTYRLGRRHNTPVRSFLLQLGGIRALGYSPELVTAVRADGVVITEPLAGTRALGRGPAIDRLARDDLESNSKEIVEHAISVRSSLEEITDIAEPGSAAVIDFMTVRERGSVQHLGSTIRARLDPSSDRMAALEALFPAVTASGIPKAAGVEAIFRLDECPRGLYSGAVVMLSADGGLDAALTLRAAYQVGGRTWLRAGAGIIEESEPEREFEETCEKLSTLTPYLVARQ | soluble
8 | MGSDKIHHHHHHLADVIYQAQPPLEFIPPAFNPLFLRFVHLLLPSWINWQTPITQIEADNVEVLVDLYRQFQEGKIRFMLAFRHPKTDDPFCLAYLLSQLVPKIARSQGTTLQLPIHAHFIYDRGIPLWAGSYVGWIASRLGGTPIQRGKADWTGLRSARDLFANGKFPMAAAPEGATNGLSENISPLEPGIAQLGFWCAEDLHKAERPEQVLIVPVGIKYSYVDAPWDAIANLLSELEAASGLPVNSAENASIESLYPRLLALAEHLLLLMEEFYTRFYHQKLPDSKIVNGQIPDRNEALAVRLQALLNAALLISEQYFNLQSKGSLSDRCRRVEQAGWNYIFREEFKDVKGVSAVERALGDRVAEEANARMWHMRLVESFVAVSGNYIRENPTVERFAETTLILWQMIAKIKGDKGVQRPQLGKQKVKITVGEPISISEHYPAYKENRLGARQAVADVTNDLQHALEGLI | not soluble
9 | MSLAEVTVVNFGGANGDAQKAAFNKPFEAQTGNKVTAVEYNGEQAKIKAMVEAKHVNWDVVEVESGDIGRGCDEGLFEKLDWSKIAKKADLVPEAPHTCGVGFFVWSTALAYNADKLKAAPSGWADFWDVKKFPGKRGMRKGARYNLEFALMADGVPVKDVYKVLATKDGQNRAFKKLDQLKPYIQWWEAGAQPPQFLVAGDVVMSTAFNGRIDAAQREGKNLKVVWNGSIYDLDYWAIPKGTPNKALAEQYIAYTLSQKAQQEYAKHIAYGPANLAAIKALDAKTQANLPNSPENGKSAVLQNLQFWTDHGDELEQRFASWASKEGHHHHHH | soluble
10 | GESSKSGYQTTGENNSSDYQGIIEDGEYKTSKSRGVGISQNSDNLLNLKSFEAGLTTISKDHFSTKSYIFQEGQYLNKATIQDWLGRKSSSNPEGLNPSDNGKKEANKRNPIYVQQIEEQDYMKQNNGKLELAGMTIGIGMNQKDYYQKEQYGATYSTTISKEKRIEEGKIAAKKVLARVRQKVGNNVPIVIAMFAQAPNDSLVGGYFYSYTVSKSGTDIGSWTETNIKSYVLPATEDNKLPNDNDSTSFDNFQKEVKNFFPNISNVTGQGQYKDKTLQGLHITITTQFYSETEITSFTQYVAQAAKSYLPSGIPVDIKINGSDGETQSFVSTTGGNGGYYTHVFGSY | soluble
11 | AAKGNMQCNIFVPAGTSKGKTTQTRLYGANCIEVEGTREDVALAAIESSVTHGSHYVGHNWHPLFIEGVKSIAYEIWEQCGYKAPDNFVVPAGNGSLLAGAYIGFSELLKGGEISKLPRLFGIQSESIQPFVQTFNNKEINITSEDTIAEGIKIKRSSRMNEIVQFVKETNGNFISVNEQQIQSALKEMGAQGYFIEPTSATAFAGIAQLIKTQEIKPDELTVGVVTGNGLKATNSIEHLINDMRG | not soluble
12 | MGSDKIHHHHHHMKIDDKTGLVLEGGGMRGVFTCGVLDYMMDKKVWFPYGVGVSAGACNGLSYMSRQRGRAKFSNIDLLEKYHYIGIKHLWRKHSILDQELLYEHFPKEILPYDYKTYAENPARFEMVTTNCITGRACYLEEKHDPRRIIAIAKASSSLPYVCPIAYVDGEPMLDGGIVDSIPVLRAIEQGFDKNVVVLTRNRGYRKKGKDMKIPHFIYKKYPRLRVVLSKRCRIYNEQLDLVEQLEDKGRIVVIRPEKPMEVDRIETDIKKLTDLYEEGYACAKKMFEEKRILQK | not soluble
13 | MAHHHHHHASVGRFVQTADPAVTALESPPLPTETRLWRQSPDCQSESDSNRVSGSVLDSVKSNGGPKHASTARLHASQDLPTSVTRFLCLSSSSNSAAAKDLRRQLLVVRDCCVALGNKVKGSELLLLGGSQLSRKVEAMADFNSCLGVIFAASLTFTGETEGVAKDTLCSVVEMLKSAQESGDEKVFRAAVVKIVNRILLCTPLRPPARNAAKETARKSAGKQEQHAEQEPKLEDECLDFLTVEDGVPVLLECVWKRWLRYFEDGYVRYVKKLMAEERQALEAAAAAAAADDYNGEEAQYVDGVSATTTQTISTVPLFTTCQDYWKSPASAYAQFCYILLAIFFVRTKDFSLNYLARVTKLVQYFTYQLEFEDGEPIAVRTDTDAEEDSAQSEDEDDDRTPPQQEGPRKEKQVHSLPMPEYDKAVTQRRFRMSRRSSSQGLVPTVVSFKKAEKPRRHCHKCFFTDALPGDLRPSVEAVRQEEAEAAARDSEEHSHLPVVRRSANLDLSEHSISPQREREQLDACDASMESVQGV | soluble
14 | MAHHHHHHMTSGPNNTTNIYDPIEVARANPYFKRNHMGQVTCTLCGIYCPEENNFLKHIAGKTHALQLERRQHKELRHLRLQEEERLNTEAEERARKEEALLALSGGQAGSGAAGGAGALSSAAAAAANARFGTPLYSFRTEHDEVAYRTKVWIEVMFTQAEEGTRPLHRWLSAREQHVEKPPDDYFVYLLFACEGYTTVALKFPAKANRSQPRDVLEEADGSTSEAYWCSWDPLQKVYTLFFALSR | soluble
15 | MSLSKVRYGVVSTAKVAPRFIEGVRLAGNGEVVAVSSRTLESAQAFANKYHLPKAYDKLEDMLADESIDVIYVATINQDHYKVAKAALLAGKHVLVEKPFTLTYDQANELFALAESCNLFLMEAQKSVFIPMTQVIKKLLASGEIGEVISISSTTAYPNIDHVTWFRELELGGGTVHFMAPYALSYLQYLFDATITHASGTATFPKGQSDSQSKLLLQLSNGVLVDIFLTTRLNLPHEMIIYGTEGRLIIPHFWKTTHAKLVRNDTSARTIQVDMVSDFEKEAYHVSQMILEGQRVSHIMTPQLTLSGVKIIEDLYRSWGKEGHHHHHH | soluble
16 | MGSDKIHHHHHHMTNEQDPKQNHLLSVLPEAEWARISPHLVRIDMPLGQVIYESGDRLHHVYFPTTSIVSLLYVMEDGSSAEIAIVGNEGLIGIALFMGGETTPNRAIVQSAGEAYRLDARILKQEFHRAGPVQRLLLRYTQALITQMAQTAVCNRHHSIDQQLCRWLLLSLDRLPSNELRMTQELIANMLGVRRSGVTEAALKLQDAGLIRYSHGHIEVLDRPGLEKRVCECYNVVKQEFDRLLPDLKAL | not soluble
17 | MSLGSNPPTKILDFLFLGGVSDATNPEFLRRENIVTILNVSREEYWSVDKGITIHPFPLEDNAEENIRKFFSHTYRLLEAARSSASPARPPCVLVHSRYGISRSVTIVLAYLMRRNGWSLNDALQYVMCRRPHVEPNVGFMNVLLSFQRDMDPQKRDIQRNEGHHHHHH | not soluble
18 | MGSSHHHHHHGKTIFVIVPTNEEQVAFLEALAKQDELNFDWQNPPTEPGQPVVILIPSDMVEWFLEMLKAKGIPFTVYVEEGGSENLYFQGGGGGGVNPVVEFVDVGCAFGGMLFSLAAVFPATCMMGLEIRPKVVSFAQEKALALRQENAASLTQHYRNVWFEQMNVMKFGSNCFTKGQLSRLFFCYPDPHWKRKNIRRRIISPGLVQEYAYWLRHGGLVYTVSDVAELEEWMVQCLDDSPLFRRLAEAELCTPEHKQVLEIVTGASEDAQRTARKGLQKHFAVHMRI | not soluble
